From publication PMC2652481

Biological target: TAF-4 (UniProt O61707)
Test: membrane recruitment of GFP::TAF-4 by Myr::FLAG::OMA-1-FL
Conditions: sites T239

| other: percent of cells with membrane GFP::TAF-4 (reference: wild type OMA-1-FL with MBK-2) | other: percent of cells with membrane GFP::TAF-4 (reference: kinase-dead MBK-2 (Y237A) coexpressed) | other: percent of cells with membrane GFP::TAF-4 (reference: no MBK-2 coexpressed) | Substance |
| --- | --- | --- | --- |
| weaker; reference 48 |  |  | OMA-1 (from UniProt G5EC86) T239A with MBK-2 |
|  | stronger; reference 16 | stronger; reference 8 | OMA-1 (from UniProt G5EC86) MBK-2 coexpressed |
